Measured values taken from doi:10.1101/2020.08.11.243964.

Biological target: Human connexin 26 protein (hCx26) (human) (UniProt P29033)
Test: cryo-EM structure

Human connexin 26 protein (hCx26) (from UniProt P29033) (natural protein)
stoichiometry N: 12
